Data published in patent publication US7531329B2, “Carbonyl reductase, gene thereof and method of using the same” (Kaneka Corporation, priority 2002, dated 2009).

Experiment: Determination of enzyme properties of purified RDR
Format: biochemical
Conditions: N-benzyl-3-pyrrolidinone 5 mM, coenzyme 0.25 mM, pH 6.5, 30° C.
Method: RDR obtained in Example 1 was investigated as to its enzymatic properties. Fundamentally, the enzyme activity was measured by adding the substrate N-benzyl-3-pyrrolidinone (5 mM), the coenzyme […] (0.25 mM) and the enzyme to 100 mM phosphate buffer (pH 6.5), allowing the reaction to proceed at 30° C. for 1 minute, and then measuring the decrease in absorbance at a wavelength of 340 nm.
In the presence of NADH as a coenzyme, the enzyme acted on N-benzyl-3-pyrrolidinone to form (R)-N-benzyl-3-pyrrolidinol with an optical purity of 99.9% ee or more. The enzyme activity measured with NADPH as a coenzyme by the above method was about 0.6% of the activity obtained by using NADH as a coenzyme.
Enzyme activity measurements were carried out by the same enzyme activity measurement method as mentioned above except that the pH was varied in the range of 4.0 to 8.0 using, as the buffer, 100 mM phosphate buffer and 100 mM acetate buffer.
Enzyme activity measurements were carried out by the same enzyme activity measurement method as mentioned above except that the temperature was varied from 20° C. to 60° C.

RDR: purified enzyme from Devosia riboflavina IFO 13584 stereoselectively reducing N-benzyl-3-pyrrolidinone to (R)-N-benzyl-3-pyrrolidinol
enzyme activity with NADPH as a coenzyme relative to the activity with NADH as a coenzyme: about 0.6%
